# Measured values published in IntAct's records for PubMed 16230351.
# B1: E3 ubiquitin-protein ligase SIAH1 (Homo sapiens), Q8IUQ4 (parent)
# chain: MSRQTATALPTGTSKCPPSQRVPALTGTTASNNDLASLFECPVCFDYVLPPILQCQSGHLVCSNCRPKLTCCPTCRGPLGSIRNLAMEKVANSVLFPCKYASSGCEITLPHTEKADHEELCEFRPYSCPCPGASCKWQGSLDAVMPHLMHQHKSITTLQGEDIVFLATDINLPGAVDWVMMQSCFGFHFMLVLEKQEKYDGHQQFFAIVQLIGTRKQAENFAYRLELNGHRRRLTWEATPRSIHEGIATAIMNSDCLVFDTSIAQLFAENGNLGINVTISMC
# partner: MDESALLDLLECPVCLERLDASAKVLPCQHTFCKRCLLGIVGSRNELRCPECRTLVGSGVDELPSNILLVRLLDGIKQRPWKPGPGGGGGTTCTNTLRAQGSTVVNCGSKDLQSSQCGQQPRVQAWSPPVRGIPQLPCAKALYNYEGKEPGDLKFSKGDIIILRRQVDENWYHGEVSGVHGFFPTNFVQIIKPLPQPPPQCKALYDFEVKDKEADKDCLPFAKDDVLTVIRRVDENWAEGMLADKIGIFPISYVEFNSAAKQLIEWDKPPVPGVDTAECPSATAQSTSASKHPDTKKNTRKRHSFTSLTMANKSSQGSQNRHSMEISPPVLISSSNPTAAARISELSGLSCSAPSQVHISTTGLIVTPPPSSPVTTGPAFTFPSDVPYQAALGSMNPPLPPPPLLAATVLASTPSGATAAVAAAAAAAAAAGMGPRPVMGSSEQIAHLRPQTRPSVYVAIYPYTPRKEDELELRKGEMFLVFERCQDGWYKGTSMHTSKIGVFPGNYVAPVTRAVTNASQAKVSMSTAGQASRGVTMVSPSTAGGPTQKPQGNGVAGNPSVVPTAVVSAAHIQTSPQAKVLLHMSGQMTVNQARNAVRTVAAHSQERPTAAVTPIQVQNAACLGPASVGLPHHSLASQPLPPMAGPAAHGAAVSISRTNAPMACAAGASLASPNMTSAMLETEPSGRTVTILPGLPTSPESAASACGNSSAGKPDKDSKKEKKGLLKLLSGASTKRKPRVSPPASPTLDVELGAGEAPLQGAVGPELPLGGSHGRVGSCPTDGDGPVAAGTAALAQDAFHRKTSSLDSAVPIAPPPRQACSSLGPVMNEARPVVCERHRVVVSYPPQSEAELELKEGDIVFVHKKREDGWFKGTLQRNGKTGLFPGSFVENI
# Variants of: B1
# Details: with sh3r1_mouse Sh3rf1, Q69ZI1
row,Variant,effect of a mutation on the interaction
1,MSRQTATALPTGTSKCPPSQRVPALTGTTASNNDLASLFESPVSFDYVLPPILQCQSGHLVCSNCRPKLTCCPTCRGPLGSIRNLAMEKVANSVLFPCKYASSGCEITLPHTEKADHEELCEFRPYSCPCPGASCKWQGSLDAVMPHLMHQHKSITTLQGEDIVFLATDINLPGAVDWVMMQSCFGFHFMLVLEKQEKYDGHQQFFAIVQLIGTRKQAENFAYRLELNGHRRRLTWEATPRSIHEGIATAIMNSDCLVFDTSIAQLFAENGNLGINVTISMC [C41S;C44S],decreasing interaction
